# Measured values reported in patent publication US20200256880A1, “Neuronal Assay Method Involving Calcineurin” (The Broad Institute, Inc., priority 2017, published 2020).
# Where two headings read alike, the source gives them in different places.
# Experiments:
# phosphorylated CNAα = molecular target: T1, phosphorylated CNAα (Mus musculus, UniProt P63328); assay: Lambda phosphatase de-phosphorylation specificity test on membrane; format: binding; details: cortical neuron (15DIV) lysates on PVDF membrane, with or without cLTP
# T1 construct: protein lysates from cortical neurons (15DIV), either 5 min post-cLTP induction or no cLTP control; endogenous in cells; host or cells: primary cortical neurons (15DIV)
# Protocol: To further test the specificity of the murine monoclonal antibody for phosphorylated CNAα, de-phosphorylation experiments were performed using lambda phosphatase on protein fixed in a membrane. Specifically, protein lysates from cortical neurons (15DIV), either 5 min post-cLTP induction or no cLTP control, were separated by SDS-PAGE and subsequently transferred to a PVDF membrane. One section of the membrane was incubated overnight at room temperature with lambda phosphatase (FIG. 13, top panel, right blot), while another section was incubated under the same conditions without phosphatase (FIG. 13, top panel, left blot). Following these incubations, the phosphatase-treated and control membrane sections were incubated with the antibody and antibody binding was detected by chemiluminescence. […] As a loading control, the level of total CNAα was also assessed in both membranes sections after the incubations with or without phosphatase (bottom panel of the figure).
# CNAα recombinant protein = assay: Western blot of CNAα recombinant protein WT, S469E and S462E/S469E with monoclonal antibody; format: binding
# Protocol: The validation of the specificity of the antibody for pS469 was additionally determined by Western blot using CNAα recombinant protein WT (unphosphorylated), the phosphomimic mutant S469E (see examples above) and a double mutant with substitutions of E for S at both positions 462 and 469 (S462E/S469E). […] Levels of total CNAα were used as a loading control and were assessed after stripping of the membranes and incubation with anti-CNAα rabbit by chemiluminescence (bottom panel).
# [1] = test system: phospho-S469 CNAα in rat hippocampal neurons; format: cell-based
# [2] = listed as monoclonal murine anti-S469 CNAα phosphospecific antibody
Molecule,recognition of CNAα with or without lambda phosphatase treatment (phosphorylated CNAα; listed as monoclonal antibody),recognition of CNAα with or without lambda phosphatase treatment (phosphorylated CNAα; listed as monoclonal murine anti-S469 phosphospecific antibody),recognition of double mutant S462E/S469E (CNAα recombinant protein),recognition of recombinant protein S469E (CNAα recombinant protein),recognition of wild-type unphosphorylated CNAα recombinant protein (CNAα recombinant protein),recognition of double mutant S462E/S469E (CNAα recombinant protein; [2]),recognition of recombinant protein S469E (CNAα recombinant protein; [2]),recognition of wild-type unphosphorylated CNAα recombinant protein (CNAα recombinant protein; [2]),levels of phospho-S469 CNAα within dendrites [1]
"monoclonal mouse anti-pS469 CNAα antibody: monoclonal mouse antibody with the heavy and light chain variable regions listed in the Sequence Table (antibody, V domains shown) VH: EVQLQQSGAELVRPGASVKLSCTASDFNIKDTYIHWLKQRPEQGLEWIGRIDPANSNPKYDPNFQGKATITTDTSSNTAYLQLSSLTSDDTAVYYCTRRDYYGSGSWFAYWGQGTLVTVSS VL: DIVMTQAAPSVPVTPGESVSISCRSSKSLLHSNGNTYLYWFLQRPGQSPQLLIYRMSNLASGVPDRFSGSGSGTAFTLRINRVEAEDVGVYYCMQHLEYPLTFGAGTKLELK",only able to recognize CNAα in absence of lambda phosphatase treatment,eliminated phosphospecific antibody binding,recognition,recognizes,not,does recognize,does recognize,does not recognize,–
"brain-derived neurotrophic factor (protein, UniProt P23560 19-247, looked up) Neurotrophic factor BDNF …: APMKEANIRGQGGLAYPGVRTHGTLESVNGPKAGSRGLTSLADTFEHVIEELLDEDQKVRPNEENNKDADLYTSRVMLSSQVPLEPPLLFLLEEYKNYLDAANMSMRVRRHSDPARRGELSVCDSISEWVTAADKKTAVDMSGGTVTVLEKVPVSKGQLKQYFYETKCNPMGYTKEGCRGIDKRHWNSQCRTTQSYVRALTMDSKKRIGWRFIRIDTSCVCTLTIKRGR",–,–,–,–,–,–,–,–,no change
